From PMC12893000, “Structural basis of quinone sensing by the MarR-type repressor MhqR in Staphylococcus aureus” (mBio, 2025)
Numbering of substitutions follows the chain as printed.

Legend:
[1] = test system: T1, SaMhqR A63E A63E (Staphylococcus aureus COL), ORF:0a4449b0; test: EMSA; settings: EMSA: 15 ng probe, 0.01-1.0 uM protein, 60 min; for MHQ tests protein diluted to 0.6 uM in 10 mM Tris-HCl pH 7.5 and treated with 0.5-100 mM MHQ for 30 min at …
T1 sequence: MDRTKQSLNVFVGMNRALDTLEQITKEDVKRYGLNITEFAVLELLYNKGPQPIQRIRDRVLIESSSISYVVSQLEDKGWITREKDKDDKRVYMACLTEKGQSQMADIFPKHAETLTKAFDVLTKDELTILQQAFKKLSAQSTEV

[2] = test system: T2, SaMhqR D88A D88A (Staphylococcus aureus COL), ORF:0a4449b0; test: EMSA; settings: EMSA: 15 ng probe, 0.01-1.0 uM protein, 60 min; for MHQ tests protein diluted to 0.6 uM in 10 mM Tris-HCl pH 7.5 and treated with 0.5-100 mM MHQ for 30 min at …
T2 sequence: T1 sequence with E63A, D88A

[3] = test system: T3, SaMhqR E38A E38A (Staphylococcus aureus COL), ORF:0a4449b0; test: EMSA; settings: EMSA: 15 ng probe, 0.01-1.0 uM protein, 60 min; for MHQ tests protein diluted to 0.6 uM in 10 mM Tris-HCl pH 7.5 and treated with 0.5-100 mM MHQ for 30 min at …
T3 sequence: T1 sequence with E38A, E63A

[4] = test system: T4, SaMhqR E43A E43A (Staphylococcus aureus COL), ORF:0a4449b0; test: EMSA; settings: EMSA: 15 ng probe, 0.01-1.0 uM protein, 60 min; for MHQ tests protein diluted to 0.6 uM in 10 mM Tris-HCl pH 7.5 and treated with 0.5-100 mM MHQ for 30 min at …
T4 sequence: T1 sequence with E43A, E63A

[5] = test system: T5, SaMhqR E43A,H111A E43A;H111A (Staphylococcus aureus COL), ORF:0a4449b0; test: EMSA; settings: EMSA: 15 ng probe, 0.01-1.0 uM protein, 60 min; for MHQ tests protein diluted to 0.6 uM in 10 mM Tris-HCl pH 7.5 and treated with 0.5-100 mM MHQ for 30 min at …
T5 sequence: T1 sequence with E43A, E63A, H111A

[6] = test system: T6, SaMhqR F11A F11A (Staphylococcus aureus COL), ORF:0a4449b0; test: EMSA; settings: EMSA: 15 ng probe, 0.01-1.0 uM protein, 60 min; for MHQ tests protein diluted to 0.6 uM in 10 mM Tris-HCl pH 7.5 and treated with 0.5-100 mM MHQ for 30 min at …
T6 sequence: T1 sequence with F11A, E63A

[7] = test system: T7, SaMhqR F39A F39A (Staphylococcus aureus COL), ORF:0a4449b0; test: EMSA; settings: EMSA: 15 ng probe, 0.01-1.0 uM protein, 60 min; for MHQ tests protein diluted to 0.6 uM in 10 mM Tris-HCl pH 7.5 and treated with 0.5-100 mM MHQ for 30 min at …
T7 sequence: T1 sequence with F39A, E63A

[8] = test system: T8, SaMhqR H111A H111A (Staphylococcus aureus COL), ORF:0a4449b0; test: EMSA; settings: EMSA: 15 ng probe, 0.01-1.0 uM protein, 60 min; for MHQ tests protein diluted to 0.6 uM in 10 mM Tris-HCl pH 7.5 and treated with 0.5-100 mM MHQ for 30 min at …
T8 sequence: T1 sequence with E63A, H111A

[9] = test system: T9, SaMhqR K89A K89A (Staphylococcus aureus COL), ORF:0a4449b0; test: EMSA; settings: EMSA: 15 ng probe, 0.01-1.0 uM protein, 60 min; for MHQ tests protein diluted to 0.6 uM in 10 mM Tris-HCl pH 7.5 and treated with 0.5-100 mM MHQ for 30 min at …
T9 sequence: T1 sequence with E63A, K89A

[10] = test system: T10, SaMhqR Q54A Q54A (Staphylococcus aureus COL), ORF:0a4449b0; test: EMSA; settings: EMSA: 15 ng probe, 0.01-1.0 uM protein, 60 min; for MHQ tests protein diluted to 0.6 uM in 10 mM Tris-HCl pH 7.5 and treated with 0.5-100 mM MHQ for 30 min at …
T10 sequence: T1 sequence with Q54A, E63A

[11] = test system: T11, SaMhqR Q73A Q73A (Staphylococcus aureus COL), ORF:0a4449b0; test: EMSA; settings: EMSA: 15 ng probe, 0.01-1.0 uM protein, 60 min; for MHQ tests protein diluted to 0.6 uM in 10 mM Tris-HCl pH 7.5 and treated with 0.5-100 mM MHQ for 30 min at …
T11 sequence: T1 sequence with E63A, Q73A

[12] = test system: T12, SaMhqR R90A R90A (Staphylococcus aureus COL), ORF:0a4449b0; test: EMSA; settings: EMSA: 15 ng probe, 0.01-1.0 uM protein, 60 min; for MHQ tests protein diluted to 0.6 uM in 10 mM Tris-HCl pH 7.5 and treated with 0.5-100 mM MHQ for 30 min at …
T12 sequence: T1 sequence with E63A, R90A

[13] = test system: T13, SaMhqR S64A S64A (Staphylococcus aureus COL), ORF:0a4449b0; test: EMSA; settings: EMSA: 15 ng probe, 0.01-1.0 uM protein, 60 min; for MHQ tests protein diluted to 0.6 uM in 10 mM Tris-HCl pH 7.5 and treated with 0.5-100 mM MHQ for 30 min at …
T13 sequence: T1 sequence with E63A, S64A

[14] = test system: T14, SaMhqR S65A S65A (Staphylococcus aureus COL), ORF:0a4449b0; test: EMSA; settings: EMSA: 15 ng probe, 0.01-1.0 uM protein, 60 min; for MHQ tests protein diluted to 0.6 uM in 10 mM Tris-HCl pH 7.5 and treated with 0.5-100 mM MHQ for 30 min at …
T14 sequence: T1 sequence with E63A, S65A

[15] = test system: T15, SaMhqR S66A S66A (Staphylococcus aureus COL), ORF:0a4449b0; test: EMSA; settings: EMSA: 15 ng probe, 0.01-1.0 uM protein, 60 min; for MHQ tests protein diluted to 0.6 uM in 10 mM Tris-HCl pH 7.5 and treated with 0.5-100 mM MHQ for 30 min at …
T15 sequence: T1 sequence with E63A, S66A

[16] = test system: T16, SaMhqR S68A S68A (Staphylococcus aureus COL), ORF:0a4449b0; test: EMSA; settings: EMSA: 15 ng probe, 0.01-1.0 uM protein, 60 min; for MHQ tests protein diluted to 0.6 uM in 10 mM Tris-HCl pH 7.5 and treated with 0.5-100 mM MHQ for 30 min at …
T16 sequence: T1 sequence with E63A, S68A

[17] = test system: T17, SaMhqR V70A V70A (Staphylococcus aureus COL), ORF:0a4449b0; test: EMSA; settings: EMSA: 15 ng probe, 0.01-1.0 uM protein, 60 min; for MHQ tests protein diluted to 0.6 uM in 10 mM Tris-HCl pH 7.5 and treated with 0.5-100 mM MHQ for 30 min at …
T17 sequence: T1 sequence with E63A, V70A

[18] = test system: T18, SaMhqR V91A V91A (Staphylococcus aureus COL), ORF:0a4449b0; test: EMSA; settings: EMSA: 15 ng probe, 0.01-1.0 uM protein, 60 min; for MHQ tests protein diluted to 0.6 uM in 10 mM Tris-HCl pH 7.5 and treated with 0.5-100 mM MHQ for 30 min at …
T18 sequence: T1 sequence with E63A, V91A

[19] = test system: T19, SaMhqR WT (Staphylococcus aureus COL), ORF:0a4449b0; test: EMSA; settings: EMSA: 15 ng probe, 0.01-1.0 uM protein, 60 min; for MHQ tests protein diluted to 0.6 uM in 10 mM Tris-HCl pH 7.5 and treated with 0.5-100 mM MHQ for 30 min at …
T19 sequence: T1 sequence with E63A

[20] = test system: T20, SaMhqR Y69A Y69A (Staphylococcus aureus COL), ORF:0a4449b0; test: EMSA; settings: EMSA: 15 ng probe, 0.01-1.0 uM protein, 60 min; for MHQ tests protein diluted to 0.6 uM in 10 mM Tris-HCl pH 7.5 and treated with 0.5-100 mM MHQ for 30 min at …
T20 sequence: T1 sequence with E63A, Y69A

[21] = test system: T21, SaMhqR Y92A Y92A (Staphylococcus aureus COL), ORF:0a4449b0; test: EMSA; settings: EMSA: 15 ng probe, 0.01-1.0 uM protein, 60 min; for MHQ tests protein diluted to 0.6 uM in 10 mM Tris-HCl pH 7.5 and treated with 0.5-100 mM MHQ for 30 min at …
T21 sequence: T1 sequence with E63A, Y92A

[22] = target: MarR-type repressor MhqR of Staphylococcus aureus (SaMhqR), wild type, C-terminally His-tagged (Staphylococcus aureus (COL)); test: SEC-MALS; Superdex 200 Increase 10/300, HEPES buffer (20 mM HEPES, 20 mM MgCl2, 200 mM NaCl, 20 mM KCl)

## ACATATCAACTCCTATCATGATTGATTATAGTATTTCCCTATTCTATTTTAACTTAAACGAAGTCAAAGGTGCATGACAGTCATGTGACGACATTGCCACATCTATGTAGTCGTTTTTATTAAGCACAGTTTGAAATGAAGATGAAAACACGTATCTTGACATTAAATCTATTCAGTTATATAATTTATCTCGAAATCGAAATAAAATAAAAAAGTTGGTGATCATATGGATCGAACG (double strand) [mhqRED promoter probe]
[1]
  binding: binds more weakly
[2]
  binding: binds more weakly
[3]
  binding: binds more weakly
[4]
  binding: binds
[5]
  binding: no binding
[6]
  binding: binds more weakly
[7]
  binding: binds more weakly
[8]
  binding: binds more weakly
[9]
  binding: binds more weakly
[10]
  binding: binds more weakly
[11]
  binding: binds more weakly
[12]
  binding: binds more weakly
[13]
  binding: binds
[14]
  binding: binds more weakly
[15]
  binding: binds more weakly
[16]
  binding: binds more weakly
[17]
  binding: binds more weakly
[18]
  binding: binds more weakly
[19]
  binding: binds
[20]
  binding: binds more weakly
[21]
  binding: binds more weakly

## MarR-type repressor MhqR of Staphylococcus aureus (SaMhqR), wild type, C-terminally His-tagged (natural protein)
[22]
  stoichiometry N: 2
